Data set [1] has as its target T1, rDorsal-RHD (Litopenaeus vannamei, UniProt D2E9Y3 74-253).
T1 sequence: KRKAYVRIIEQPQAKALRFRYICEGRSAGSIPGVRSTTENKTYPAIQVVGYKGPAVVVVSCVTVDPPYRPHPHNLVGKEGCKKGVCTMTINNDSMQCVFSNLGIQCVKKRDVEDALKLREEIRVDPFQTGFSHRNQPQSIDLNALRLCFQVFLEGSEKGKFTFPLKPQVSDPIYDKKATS
Kind of data set: EMSA.

Another data set concerns the target rTrx (UniProt P0AA25 1-109). The data set can be described thus: EMSA. (In general: In EMSA bound probe runs differently from free probe, usually more slowly.)
For data set [2], the target named is T1, rDorsal-RHD. The data set can be described thus: competition.

Consider three molecules from doi:10.1101/467571.

rTrx, sequence (P0AA25 whole entry): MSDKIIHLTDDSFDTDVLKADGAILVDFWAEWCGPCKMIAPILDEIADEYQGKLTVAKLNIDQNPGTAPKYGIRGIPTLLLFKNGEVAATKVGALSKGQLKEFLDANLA

B1: Mut-bio-probe 1 (dsDNA)
DNA 1: TCTGTGTGTGTGTCCTTTACGGAGAAAACATTATCAGA
DNA 2: TCTGATAATGTTTTCTCCGTAAAGGACACACACACAGA
On to B1, for which, in the data set with rDorsal-RHD [1], the binding result is reported as “no binding”.

B2: probe 1 (BigPEN kB1) (dsDNA)
DNA 1: TCTGTGTGTGTGTCCTTTAGTGTTTTTCGCCGGAGAAAACATTATCAGAC
DNA 2: GTCTGATAATGTTTTCTCCGGCGAAAAACACTAAAGGACACACACACAGA
For the molecule B2, the binding result in the data set with rTrx is “no binding”; with rDorsal-RHD [1], “binds”.

B3: unlabeled probe 1 (dsDNA)
DNA 1: B2 DNA 1
DNA 2: B2 DNA 2
B3: the binding result in the data set with rDorsal-RHD [2] is “binds”.
